Results: publication PMC6286077

Molecular target: phosphorylated PD-1 cytosolic domain, bound to large unilamellar vesicles (LUVs)
Assay: FRET or BRET

Shp1, full length, SNAP-Tag fused, labeled with SNAP-Cell 505 (from UniProt P29350 1-595) (enzyme)
fold selectivity of PD-1 toward full-length Shp2 over Shp1: 29 fold
